According to US20230406885A1, “CYCLIC PEPTIDES FOR TRAPPING INTERLEUKIN-1 BETA” (MERCK SHARP & DOHME LLC, priority 2022, published 2023):
*1 amine or outer side, *2 acyl side, *3 side chain or, on linkers, in order; H or OH if unused. [ ]: non-standard residue; d: D form. TyrEtNAc = L-tyrosine O-ethyl acetamide, (S)-3-(4-(2-acetamidoethoxy)phenyl)-2-aminopropanoic acid, CC(=O)NCCOc1ccc(C[C@H](N[*:1])C(=O)[*:2])cc1; hF3CF3 = (S)-2-amino-4-(3-(trifluoromethyl)phenyl)butanoic acid, O=C([C@H](CCc1cccc(C(F)(F)F)c1)N[*:1])[*:2]; Cha44F2 = (S)-2-amino-3-(4,4-difluorocyclohexyl)propanoic acid, O=C([C@H](CC1CCC(F)(F)CC1)N[*:1])[*:2]; AbuMph = (S)-2-amino-4-morpholinobutanoic acid, O=C([C@H](CCN1CCOCC1)N[*:1])[*:2]; hSOMe = (S)-2-amino-4-methoxybutanoic acid, COCC[C@H](N[*:1])C(=O)[*:2]; Trp(4-Cl)(βS-Me) = C[C@@H](c1c[nH]c2cccc(Cl)c12)[C@H](N)C(=O)O; Pro(trans-4-NH2) = O=C([C@@H]1C[C@@H](N[*:3])CN1[*:1])[*:2]; Bip(4'-COOH) = N[C@@H](Cc1ccc(-c2ccc(C(=O)O)cc2)cc1)C(=O)O; Phe(4-COOH) = N[C@@H](Cc1ccc(C(=O)O)cc1)C(=O)O; hTyr = N[C@@H](CCc1ccc(O)cc1)C(=O)O; hPhe = N[C@@H](CCc1ccccc1)C(=O)O; 4Pal = N[C@@H](Cc1ccncc1)C(=O)O; Dap(Me2) = CN(C)C[C@H](N)C(=O)O; dDab = NCC[C@@H](N)C(=O)O; dNMeA = CN[C@H](C)C(=O)O; Dab = NCC[C@H](N)C(=O)O; Nva = CCC[C@H](N)C(=O)O; Dap = NC[C@H](N)C(=O)O

B1: SEQ ID NO: 144 (Example No. 144) (peptide)
peptide: cyclo([TyrEtNAc]W[Phe(4-COOH)]G[Pro(trans-4-NH2)][Trp(4-Cl)(βS-Me)]D[dNMeA]G[Bip(4'-COOH)]W[Dap][dA][hPhe])
SMILES: CC(=O)NCCOc1ccc(C[C@@H]2NC(=O)[C@H](CCc3ccccc3)NC(=O)[C@@H](C)NC(=O)[C@H](CN)NC(=O)[C@H](Cc3c[nH]c4ccccc34)NC(=O)[C@H](Cc3ccc(-c4ccc(C(=O)O)cc4)cc3)NC(=O)CNC(=O)[C@@H](C)N(C)C(=O)[C@H](CC(=O)O)NC(=O)[C@H]([C@@H](C)c3c[nH]c4cccc(Cl)c34)NC(=O)[C@@H]3C[C@@H](N)CN3C(=O)CNC(=O)[C@H](Cc3ccc(C(=O)O)cc3)NC(=O)[C@H](Cc3c[nH]c4ccccc34)NC2=O)cc1
B2: SEQ ID NO: 146 (Example No. 146) (peptide)
peptide: cyclo([TyrEtNAc]W[Phe(4-COOH)]G[Pro(trans-4-NH2)][Trp(4-Cl)(βS-Me)]D[dNMeA]G[Bip(4'-COOH)]W[Dap(Me2)][dA][hTyr])
SMILES: CC(=O)NCCOc1ccc(C[C@@H]2NC(=O)[C@H](CCc3ccc(O)cc3)NC(=O)[C@@H](C)NC(=O)[C@H](CN(C)C)NC(=O)[C@H](Cc3c[nH]c4ccccc34)NC(=O)[C@H](Cc3ccc(-c4ccc(C(=O)O)cc4)cc3)NC(=O)CNC(=O)[C@@H](C)N(C)C(=O)[C@H](CC(=O)O)NC(=O)[C@H]([C@@H](C)c3c[nH]c4cccc(Cl)c34)NC(=O)[C@@H]3C[C@@H](N)CN3C(=O)CNC(=O)[C@H](Cc3ccc(C(=O)O)cc3)NC(=O)[C@H](Cc3c[nH]c4ccccc34)NC2=O)cc1
B3: SEQ ID NO: 142 (Example No. 142) (peptide)
peptide: cyclo([TyrEtNAc]W[Phe(4-COOH)]G[Pro(trans-4-NH2)][Trp(4-Cl)(βS-Me)]D[dNMeA]G[Bip(4'-COOH)]W[Dab][dA][hPhe])
SMILES: CC(=O)NCCOc1ccc(C[C@@H]2NC(=O)[C@H](CCc3ccccc3)NC(=O)[C@@H](C)NC(=O)[C@H](CCN)NC(=O)[C@H](Cc3c[nH]c4ccccc34)NC(=O)[C@H](Cc3ccc(-c4ccc(C(=O)O)cc4)cc3)NC(=O)CNC(=O)[C@@H](C)N(C)C(=O)[C@H](CC(=O)O)NC(=O)[C@H]([C@@H](C)c3c[nH]c4cccc(Cl)c34)NC(=O)[C@@H]3C[C@@H](N)CN3C(=O)CNC(=O)[C@H](Cc3ccc(C(=O)O)cc3)NC(=O)[C@H](Cc3c[nH]c4ccccc34)NC2=O)cc1
B4: SEQ ID NO: 147 (Example No. 147) (peptide)
peptide: cyclo([TyrEtNAc]W[Phe(4-COOH)]G[Pro(trans-4-NH2)][Trp(4-Cl)(βS-Me)]D[dNMeA]G[Bip(4'-COOH)]W[hSOMe][dA][hTyr])
SMILES: COCC[C@@H]1NC(=O)[C@H](Cc2c[nH]c3ccccc23)NC(=O)[C@H](Cc2ccc(-c3ccc(C(=O)O)cc3)cc2)NC(=O)CNC(=O)[C@@H](C)N(C)C(=O)[C@H](CC(=O)O)NC(=O)[C@H]([C@@H](C)c2c[nH]c3cccc(Cl)c23)NC(=O)[C@@H]2C[C@@H](N)CN2C(=O)CNC(=O)[C@H](Cc2ccc(C(=O)O)cc2)NC(=O)[C@H](Cc2c[nH]c3ccccc23)NC(=O)[C@H](Cc2ccc(OCCNC(C)=O)cc2)NC(=O)[C@H](CCc2ccc(O)cc2)NC(=O)[C@@H](C)NC1=O
B5: SEQ ID NO: 136 (Example No. 136) (peptide)
peptide: cyclo([TyrEtNAc]W[Phe(4-COOH)]G[Pro(trans-4-NH2)][Trp(4-Cl)(βS-Me)]D[dNMeA]G[Bip(4'-COOH)][4Pal][Nva][dA][Cha44F2])
SMILES: CCC[C@@H]1NC(=O)[C@H](Cc2ccncc2)NC(=O)[C@H](Cc2ccc(-c3ccc(C(=O)O)cc3)cc2)NC(=O)CNC(=O)[C@@H](C)N(C)C(=O)[C@H](CC(=O)O)NC(=O)[C@H]([C@@H](C)c2c[nH]c3cccc(Cl)c23)NC(=O)[C@@H]2C[C@@H](N)CN2C(=O)CNC(=O)[C@H](Cc2ccc(C(=O)O)cc2)NC(=O)[C@H](Cc2c[nH]c3ccccc23)NC(=O)[C@H](Cc2ccc(OCCNC(C)=O)cc2)NC(=O)[C@H](CC2CCC(F)(F)CC2)NC(=O)[C@@H](C)NC1=O
B6: SEQ ID NO: 145 (Example No. 145) (peptide)
peptide: cyclo([TyrEtNAc]W[Phe(4-COOH)]G[Pro(trans-4-NH2)][Trp(4-Cl)(βS-Me)]D[dNMeA]G[Bip(4'-COOH)]W[Dap][dA][hTyr])
SMILES: CC(=O)NCCOc1ccc(C[C@@H]2NC(=O)[C@H](CCc3ccc(O)cc3)NC(=O)[C@@H](C)NC(=O)[C@H](CN)NC(=O)[C@H](Cc3c[nH]c4ccccc34)NC(=O)[C@H](Cc3ccc(-c4ccc(C(=O)O)cc4)cc3)NC(=O)CNC(=O)[C@@H](C)N(C)C(=O)[C@H](CC(=O)O)NC(=O)[C@H]([C@@H](C)c3c[nH]c4cccc(Cl)c34)NC(=O)[C@@H]3C[C@@H](N)CN3C(=O)CNC(=O)[C@H](Cc3ccc(C(=O)O)cc3)NC(=O)[C@H](Cc3c[nH]c4ccccc34)NC2=O)cc1
B7: SEQ ID NO: 141 (Example No. 141) (peptide)
peptide: cyclo([TyrEtNAc]W[Phe(4-COOH)]G[Pro(trans-4-NH2)][Trp(4-Cl)(βS-Me)]D[dNMeA]G[Bip(4'-COOH)]W[AbuMph][dA][hTyr])
SMILES: CC(=O)NCCOc1ccc(C[C@@H]2NC(=O)[C@H](CCc3ccc(O)cc3)NC(=O)[C@@H](C)NC(=O)[C@H](CCN3CCOCC3)NC(=O)[C@H](Cc3c[nH]c4ccccc34)NC(=O)[C@H](Cc3ccc(-c4ccc(C(=O)O)cc4)cc3)NC(=O)CNC(=O)[C@@H](C)N(C)C(=O)[C@H](CC(=O)O)NC(=O)[C@H]([C@@H](C)c3c[nH]c4cccc(Cl)c34)NC(=O)[C@@H]3C[C@@H](N)CN3C(=O)CNC(=O)[C@H](Cc3ccc(C(=O)O)cc3)NC(=O)[C@H](Cc3c[nH]c4ccccc34)NC2=O)cc1
B8: SEQ ID NO: 143 (Example No. 143) (peptide)
peptide: cyclo([TyrEtNAc]W[Phe(4-COOH)]G[Pro(trans-4-NH2)][Trp(4-Cl)(βS-Me)]D[dNMeA]G[Bip(4'-COOH)]W[Dab][dA][hTyr])
SMILES: CC(=O)NCCOc1ccc(C[C@@H]2NC(=O)[C@H](CCc3ccc(O)cc3)NC(=O)[C@@H](C)NC(=O)[C@H](CCN)NC(=O)[C@H](Cc3c[nH]c4ccccc34)NC(=O)[C@H](Cc3ccc(-c4ccc(C(=O)O)cc4)cc3)NC(=O)CNC(=O)[C@@H](C)N(C)C(=O)[C@H](CC(=O)O)NC(=O)[C@H]([C@@H](C)c3c[nH]c4cccc(Cl)c34)NC(=O)[C@@H]3C[C@@H](N)CN3C(=O)CNC(=O)[C@H](Cc3ccc(C(=O)O)cc3)NC(=O)[C@H](Cc3c[nH]c4ccccc34)NC2=O)cc1
B9: SEQ ID NO: 140 (Example No. 140) (peptide)
peptide: cyclo([TyrEtNAc]W[Phe(4-COOH)]G[Pro(trans-4-NH2)][Trp(4-Cl)(βS-Me)]D[dNMeA]G[Bip(4'-COOH)]W[AbuMph][dA]G)
SMILES: CC(=O)NCCOc1ccc(C[C@@H]2NC(=O)CNC(=O)[C@@H](C)NC(=O)[C@H](CCN3CCOCC3)NC(=O)[C@H](Cc3c[nH]c4ccccc34)NC(=O)[C@H](Cc3ccc(-c4ccc(C(=O)O)cc4)cc3)NC(=O)CNC(=O)[C@@H](C)N(C)C(=O)[C@H](CC(=O)O)NC(=O)[C@H]([C@@H](C)c3c[nH]c4cccc(Cl)c34)NC(=O)[C@@H]3C[C@@H](N)CN3C(=O)CNC(=O)[C@H](Cc3ccc(C(=O)O)cc3)NC(=O)[C@H](Cc3c[nH]c4ccccc34)NC2=O)cc1
B10: SEQ ID NO: 138 (Example No. 138) (peptide)
peptide: cyclo([TyrEtNAc]W[Phe(4-COOH)]G[Pro(trans-4-NH2)][Trp(4-Cl)(βS-Me)]D[dNMeA]G[Bip(4'-COOH)]KS[dA][hTyr])
SMILES: CC(=O)NCCOc1ccc(C[C@@H]2NC(=O)[C@H](CCc3ccc(O)cc3)NC(=O)[C@@H](C)NC(=O)[C@H](CO)NC(=O)[C@H](CCCCN)NC(=O)[C@H](Cc3ccc(-c4ccc(C(=O)O)cc4)cc3)NC(=O)CNC(=O)[C@@H](C)N(C)C(=O)[C@H](CC(=O)O)NC(=O)[C@H]([C@@H](C)c3c[nH]c4cccc(Cl)c34)NC(=O)[C@@H]3C[C@@H](N)CN3C(=O)CNC(=O)[C@H](Cc3ccc(C(=O)O)cc3)NC(=O)[C@H](Cc3c[nH]c4ccccc34)NC2=O)cc1
B11: SEQ ID NO: 139 (Example No. 139) (peptide)
peptide: cyclo([TyrEtNAc]W[Phe(4-COOH)]G[Pro(trans-4-NH2)][Trp(4-Cl)(βS-Me)]D[dNMeA]G[Bip(4'-COOH)]KS[dDab][hTyr])
SMILES: CC(=O)NCCOc1ccc(C[C@@H]2NC(=O)[C@H](CCc3ccc(O)cc3)NC(=O)[C@@H](CCN)NC(=O)[C@H](CO)NC(=O)[C@H](CCCCN)NC(=O)[C@H](Cc3ccc(-c4ccc(C(=O)O)cc4)cc3)NC(=O)CNC(=O)[C@@H](C)N(C)C(=O)[C@H](CC(=O)O)NC(=O)[C@H]([C@@H](C)c3c[nH]c4cccc(Cl)c34)NC(=O)[C@@H]3C[C@@H](N)CN3C(=O)CNC(=O)[C@H](Cc3ccc(C(=O)O)cc3)NC(=O)[C@H](Cc3c[nH]c4ccccc34)NC2=O)cc1
B12: SEQ ID NO: 137 (Example No. 137) (peptide)
peptide: cyclo([TyrEtNAc]W[Phe(4-COOH)]G[Pro(trans-4-NH2)][Trp(4-Cl)(βS-Me)]D[dNMeA]G[Bip(4'-COOH)]KL[dA][hF3CF3])
SMILES: CC(=O)NCCOc1ccc(C[C@@H]2NC(=O)[C@H](CCc3cccc(C(F)(F)F)c3)NC(=O)[C@@H](C)NC(=O)[C@H](CC(C)C)NC(=O)[C@H](CCCCN)NC(=O)[C@H](Cc3ccc(-c4ccc(C(=O)O)cc4)cc3)NC(=O)CNC(=O)[C@@H](C)N(C)C(=O)[C@H](CC(=O)O)NC(=O)[C@H]([C@@H](C)c3c[nH]c4cccc(Cl)c34)NC(=O)[C@@H]3C[C@@H](N)CN3C(=O)CNC(=O)[C@H](Cc3ccc(C(=O)O)cc3)NC(=O)[C@H](Cc3c[nH]c4ccccc34)NC2=O)cc1

Target: Recombinant human IL-1β (BioLegend 579404) (human, UniProt P01584 117-269)
Assay: cell-based or functional assay

Binder | MRC5 IC50 [nM]
B1 | 0.0749
B2 | 0.114
B3 | 0.159
B4 | 0.0926
B5 | 0.396
B6 | 0.0748
B7 | 0.177
B8 | 0.23
B9 | 0.515
B10 | 0.214
B11 | 0.133
B12 | 0.0939
